The record followed here is US20200207873A1 (INSERM INSTITUT NATIONAL DE LA SANT ET DE LA RECHERCHE M …, published 2020).

This test concerns the target T1, full-length His-tagged pUL89 (wild-type) (human cytomegalovirus, AD169 genotype, UniProt P16732 1-674).
T1 construct: mature; It was expressed from pCI-neo His-pUL89 in HEK293 cells and purified on Ni resin; also called His-pUL89; 6xHis-pUL89; not shown: 6xHis tag
T1 sequence: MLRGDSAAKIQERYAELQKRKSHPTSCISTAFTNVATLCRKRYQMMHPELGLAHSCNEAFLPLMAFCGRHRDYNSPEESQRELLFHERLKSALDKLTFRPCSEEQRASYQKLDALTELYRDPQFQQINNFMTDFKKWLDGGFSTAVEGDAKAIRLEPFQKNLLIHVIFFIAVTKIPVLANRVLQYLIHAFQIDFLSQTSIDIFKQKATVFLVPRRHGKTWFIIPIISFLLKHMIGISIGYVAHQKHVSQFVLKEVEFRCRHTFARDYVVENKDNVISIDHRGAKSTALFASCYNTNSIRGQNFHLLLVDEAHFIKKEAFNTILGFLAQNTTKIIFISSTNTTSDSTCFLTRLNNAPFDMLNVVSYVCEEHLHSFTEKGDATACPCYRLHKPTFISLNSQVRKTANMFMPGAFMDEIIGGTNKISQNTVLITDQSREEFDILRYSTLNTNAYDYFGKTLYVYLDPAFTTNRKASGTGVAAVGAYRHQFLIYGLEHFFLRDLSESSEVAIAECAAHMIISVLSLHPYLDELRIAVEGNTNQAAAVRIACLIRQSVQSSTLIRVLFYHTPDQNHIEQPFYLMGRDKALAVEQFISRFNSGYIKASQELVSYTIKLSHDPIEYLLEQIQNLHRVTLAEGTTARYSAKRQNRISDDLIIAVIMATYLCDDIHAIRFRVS
In words: Alpha proximity assay, purified proteins; negative controls are each protein alone.

B1: full-length amino-terminal 3xHA-tagged pUL56 (wild-type) (other)
chain: MEMNLLQKLCVVCSKCNEYAMELECLKYCDPNVLLAESTPFKRNAAAIVYLYRKIYPEVVAQNRTQSSLLTLYLEMLLKALHEDTALLDRALMAYSRQPDRAAFYRTVLRLDRCDRHHTVELQFTDNVRFSVSLATLNDIERFLCKMNYVYGILAPEAGLEVCAQLLELLRRLCGISPVARQEVYVEGTTCAQCYEELTIIPNQGRSLNKRLQGLLCNHIAVHRPSSQSDVNIQTVEQDLLDLTTRIPHLAGVLSALKSLFSSSSAYHSYIQEAEEALREYNLFTDIPERIYSLSDFTYWSRTSEVIVKRVGITIQQLNVYHQLCRALMNGISRHLYGEDVEDIFVLGEKALDGEERMFVGSVFAAPNRIIDLITSLSIQAFEDNPVFNKLHESNEMYTKIKHILEEIRRPLPDGTGGDGPEGEAIHLRGREAMSGTGTTLMTASNSSNSSTHSQRNNGGGGRARGGGKKAVGGGANGQDGDGSENGLRVRNCDEHEALDLVDARSRIHNVTREVNVRKRAYLQKVSEVGYGKVIRCIKTQERLTSKLIDVNLVGPLCLDFISKLMNGFLYRSQYHQDQDVVDVGDQFTYDEHLYVVNNLIHKSLPVESLPLLGQQIYELCNGPLFTHCTDRYPLSHNVDMAYACDNAGVLPHVKDDLVKCAEGTVYPSEWMVVKYMGFFNFSDCQDLNVLQKEMWMHVRELVLSVALYNETFGKQLSIACLRDELHPDRDVILTYNKEWPLLLRHEGNLYKSKDLYLLLYRHLSRPDESGDVPTAPVAKPSTLTAAAAVSGAFREPDRPWLPSPYPSSSTAGVSRRVRATRKRPRRASSLLDLARDEHGIQDLVPGSLR
notes: also called 3xHA-pUL56; HA-pUL56; not shown: amino-terminal 3xHA tag
Turning to B1, the “fold of Alpha signal over negative controls” value was over 2 fold.
